Laboratory results published in paper PMC2928021.

Target: anaphase-promoting complex/cyclosome (APC/C), phosphorylated, of mitotic cells (human (endogenous in U2OS)) (UniProt P30260)
Assay: co-sedimentation

UniProt P30260, sequence (P30260 whole entry, looked up, one chain of several): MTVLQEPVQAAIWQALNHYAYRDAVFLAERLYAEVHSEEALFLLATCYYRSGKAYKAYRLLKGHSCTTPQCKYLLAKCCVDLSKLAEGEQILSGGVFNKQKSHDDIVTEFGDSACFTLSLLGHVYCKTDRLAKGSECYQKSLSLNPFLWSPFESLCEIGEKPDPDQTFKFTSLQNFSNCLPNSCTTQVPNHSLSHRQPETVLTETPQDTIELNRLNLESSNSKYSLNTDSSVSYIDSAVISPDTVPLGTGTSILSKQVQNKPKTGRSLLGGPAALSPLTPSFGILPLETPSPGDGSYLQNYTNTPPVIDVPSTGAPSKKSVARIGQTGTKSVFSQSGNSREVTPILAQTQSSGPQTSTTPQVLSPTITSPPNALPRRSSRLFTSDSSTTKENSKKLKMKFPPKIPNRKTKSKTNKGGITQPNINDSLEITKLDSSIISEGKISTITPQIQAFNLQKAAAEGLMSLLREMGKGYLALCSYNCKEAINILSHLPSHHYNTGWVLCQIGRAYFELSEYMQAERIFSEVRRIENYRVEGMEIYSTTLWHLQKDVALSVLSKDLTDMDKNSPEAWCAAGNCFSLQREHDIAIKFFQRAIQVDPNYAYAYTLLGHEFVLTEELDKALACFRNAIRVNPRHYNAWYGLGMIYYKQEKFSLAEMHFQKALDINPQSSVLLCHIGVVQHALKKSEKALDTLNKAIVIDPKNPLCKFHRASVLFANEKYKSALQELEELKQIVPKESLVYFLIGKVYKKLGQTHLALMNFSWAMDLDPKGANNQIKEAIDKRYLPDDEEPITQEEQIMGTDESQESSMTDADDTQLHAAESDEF

“cyclin B1–N–Cks1–Venus (from UniProt P14635;P61024)” gave a percent comigrating of 40%.
